In the supplement of paper PMC7125110:
± gives the standard error. For some assays here: Fewer inactive variants are shown than the library holds.

B1: glmS ribozyme (parent)
chain: AUAAAAGCGCCAGAACUACAGAAAUGUAGUUGACGAGGAGGAGGUUUAUCGAAUUUUCGGCGGAUGCCUCCAAA

Key:
Conditions in all cases: with glucosamine-6-phosphate
glucosamine-6-phosphate [1] = variants of: B1; experiment: kcat; higher = faster cleavage; RNA array
Outline: (§1)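 Barcoded ribozyme variants were transcribed in situ on sequenced MiSeq chips by E. coli RNA polymerase. At 37 °C, a hybridised Cy3 probe tracked them while glucosamine-6-phosphate (40 μM to 10 mM) in HEPES/KCl/Mg(OAc)2 buffer flowed in and tiles were imaged over ~14 h. Per-tile medians of signals normalised to baseline and to non-cleaving reference variants were fit to one- or two-exponential decays, giving kobs. kcat and KM came from weighted Michaelis–Menten fits across concentrations.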

glucosamine-6-phosphate [2] = variants of: B1; experiment: self-cleavage kobs at 40 uM GlcN6P; higher = faster cleavage; RNA array
Outline: as §1

glucosamine-6-phosphate [3] = variants of: B1; experiment: KM; higher = weaker cofactor use; RNA array
Outline: as §1

glucosamine-6-phosphate [4] = variants of: B1; experiment: self-cleavage kobs at 640 uM GlcN6P; higher = faster cleavage; RNA array
Outline: as §1

glucosamine-6-phosphate [5] = variants of: B1; experiment: self-cleavage kobs at 2500 uM GlcN6P; higher = faster cleavage; RNA array
Outline: as §1

glucosamine-6-phosphate [6] = variants of: B1; experiment: self-cleavage kobs at 10000 uM GlcN6P; higher = faster cleavage; RNA array
Outline: as §1

glucosamine-6-phosphate [7] = variants of: B1; experiment: self-cleavage kobs at 160 uM GlcN6P; higher = faster cleavage; RNA array
Outline: as §1

Variant | kcat (glucosamine-6-phosphate [1]) | self-cleavage kobs at 40 uM GlcN6P (glucosamine-6-phosphate [2]) | KM (glucosamine-6-phosphate [3]) | self-cleavage kobs at 640 uM GlcN6P (glucosamine-6-phosphate [4]) | self-cleavage kobs at 2500 uM GlcN6P (glucosamine-6-phosphate [5]) | self-cleavage kobs at 10000 uM GlcN6P (glucosamine-6-phosphate [6]) | self-cleavage kobs at 160 uM GlcN6P (glucosamine-6-phosphate [7])
A33U C68U | 1.75e-05 ± 1.6e-06 s⁻¹ | < 1e-05 s⁻¹ | – | – | – | – | –
U55C U69A | 1.74e-05 ± 6.8e-06 s⁻¹ | – | – | – | – | – | –
U55C C70A | 1.26e-05 ± 1.6e-06 s⁻¹ | < 1e-05 s⁻¹ | – | – | – | – | –
U30C U46G | 3.27e-05 ± 2.8e-06 s⁻¹ | – | 5040 ± 1000 µM | – | – | – | –
C11A U31A | 0.00019 ± 2e-05 s⁻¹ | – | 1480 ± 350 µM | 5.42e-05 ± 1e-05 s⁻¹ | 0.000147 ± 2.8e-05 s⁻¹ | 0.000158 ± 2.3e-05 s⁻¹ | –
U45A | 0.0731 ± 0.026 s⁻¹ | 0.00192 ± 4e-05 s⁻¹ | 1680 ± 700 µM | 0.0167 ± 0.00063 s⁻¹ | 0.0529 ± 0.0042 s⁻¹ | 0.0751 ± 0.0041 s⁻¹ | 0.00532 ± 0.00022 s⁻¹
G44C A52G | < 1e-05 s⁻¹ | < 1e-05 s⁻¹ | 279 ± 110 µM | < 1e-05 s⁻¹ | – | – | < 1e-05 s⁻¹
A6C A14G | 0.000252 ± 8.5e-06 s⁻¹ | – | 1220 ± 210 µM | – | 0.000164 ± 3.1e-05 s⁻¹ | 0.000226 ± 2.3e-05 s⁻¹ | –
A39G U46A | 0.00547 ± 0.00066 s⁻¹ | 0.000116 ± 3.8e-05 s⁻¹ | 2120 ± 360 µM | 0.00116 ± 0.00029 s⁻¹ | 0.00325 ± 0.00083 s⁻¹ | 0.00435 ± 0.0014 s⁻¹ | 0.000377 ± 0.0001 s⁻¹
A12U C16A A33U A36C G38A G62A U69A C71U | 2.12e-05 ± 1.1e-06 s⁻¹ | – | – | – | – | – | –
C16A A42G | 0.00215 ± 0.00056 s⁻¹ | 3.27e-05 ± 1.1e-05 s⁻¹ | 2550 ± 900 µM | 0.00062 ± 0.00012 s⁻¹ | 0.00103 ± 0.0002 s⁻¹ | 0.00165 ± 0.00043 s⁻¹ | 0.000111 ± 2.3e-05 s⁻¹
G66U C68U | 0.000348 ± 2.4e-05 s⁻¹ | 2.21e-05 ± 1e-05 s⁻¹ | 1260 ± 190 µM | 0.000116 ± 1.2e-05 s⁻¹ | 0.000226 ± 4e-05 s⁻¹ | 0.000311 ± 2.9e-05 s⁻¹ | 3.82e-05 ± 1.3e-05 s⁻¹
U30C U65A | 2.91e-05 ± 1.2e-05 s⁻¹ | – | – | – | 3.76e-05 ± 1.2e-05 s⁻¹ | – | –
A6U C16G U55A | 1.73e-05 ± 5.1e-06 s⁻¹ | – | – | – | – | – | –
U47A U55C | 0.0198 ± 0.0084 s⁻¹ | 0.000537 ± 8.5e-05 s⁻¹ | – | 0.00441 ± 0.0013 s⁻¹ | 0.0089 ± 0.0023 s⁻¹ | 0.024 ± 0.0055 s⁻¹ | 0.00116 ± 0.00033 s⁻¹
U49G C68G | 3.3e-05 ± 5.3e-06 s⁻¹ | – | – | – | 3.47e-05 ± 1.3e-05 s⁻¹ | – | –
G13A G41U | 5.73e-05 ± 8.7e-06 s⁻¹ | < 1e-05 s⁻¹ | – | – | – | – | –
U65G C68U | 0.00167 ± 0.00057 s⁻¹ | 5.31e-05 ± 8.4e-06 s⁻¹ | – | 0.000304 ± 4.1e-05 s⁻¹ | 0.000758 ± 0.00013 s⁻¹ | 0.00155 ± 0.00018 s⁻¹ | 0.000159 ± 3.2e-05 s⁻¹
A48U A52G | 1.32e-05 ± 2.9e-06 s⁻¹ | – | – | – | – | – | –
G32U A33C | < 1e-05 s⁻¹ | – | – | < 1e-05 s⁻¹ | – | – | < 1e-05 s⁻¹

Variant | kcat (glucosamine-6-phosphate [1]) | self-cleavage kobs at 40 uM GlcN6P (glucosamine-6-phosphate [2]) | KM (glucosamine-6-phosphate [3]) | self-cleavage kobs at 640 uM GlcN6P (glucosamine-6-phosphate [4]) | self-cleavage kobs at 2500 uM GlcN6P (glucosamine-6-phosphate [5]) | self-cleavage kobs at 10000 uM GlcN6P (glucosamine-6-phosphate [6]) | self-cleavage kobs at 160 uM GlcN6P (glucosamine-6-phosphate [7])
U69C C71U | 0.000591 ± 7.2e-05 s⁻¹ | 5.8e-05 ± 1.1e-05 s⁻¹ | 368 ± 88 µM | 0.000326 ± 9.3e-05 s⁻¹ | 0.000432 ± 9.4e-05 s⁻¹ | 0.000676 ± 0.00011 s⁻¹ | 0.000208 ± 5.6e-05 s⁻¹
G63U C67A | < 1e-05 s⁻¹ | – | – | – | – | < 1e-05 s⁻¹ | < 1e-05 s⁻¹
G37C U54A U69G | 3.07e-05 ± 5e-06 s⁻¹ | – | – | – | – | – | –
A12G A53U | 0.00085 ± 8.4e-05 s⁻¹ | – | 4340 ± 620 µM | 0.000112 ± 1e-05 s⁻¹ | 0.000319 ± 3e-05 s⁻¹ | 0.00058 ± 6.7e-05 s⁻¹ | 2.34e-05 ± 7.6e-06 s⁻¹
U31A A48C | 0.000149 ± 3.3e-05 s⁻¹ | – | – | 4.87e-05 ± 1.3e-05 s⁻¹ | 7.42e-05 ± 1.5e-05 s⁻¹ | 0.00014 ± 2.4e-05 s⁻¹ | –
C16U G29U | 0.00871 ± 0.0037 s⁻¹ | 0.000315 ± 2.9e-05 s⁻¹ | – | 0.00245 ± 0.00028 s⁻¹ | 0.00415 ± 0.00061 s⁻¹ | 0.0111 ± 0.0014 s⁻¹ | 0.000639 ± 8.5e-05 s⁻¹
C11U U31G | 0.00667 ± 0.0031 s⁻¹ | 0.000105 ± 2.5e-05 s⁻¹ | – | 0.000818 ± 0.00016 s⁻¹ | 0.00175 ± 0.0004 s⁻¹ | 0.00565 ± 0.00097 s⁻¹ | 0.000255 ± 6.7e-05 s⁻¹
G9U U47C | < 1e-05 s⁻¹ | – | – | < 1e-05 s⁻¹ | < 1e-05 s⁻¹ | – | < 1e-05 s⁻¹
C10G U46A | < 1e-05 s⁻¹ | – | – | < 1e-05 s⁻¹ | < 1e-05 s⁻¹ | – | –
A14C C50A | < 1e-05 s⁻¹ | – | – | – | – | – | –
U30A U56C | 0.0028 ± 0.00091 s⁻¹ | – | – | 0.000126 ± 2.4e-05 s⁻¹ | 0.000369 ± 8.1e-05 s⁻¹ | 0.00113 ± 0.00015 s⁻¹ | –
G62C C68A | 1.29e-05 ± 3.6e-06 s⁻¹ | – | – | – | – | – | –
A39G C58G C71A | 2.19e-05 ± 5.6e-06 s⁻¹ | – | – | – | – | – | –
A15U A53G | 0.00765 ± 0.0013 s⁻¹ | 0.00019 ± 1.8e-05 s⁻¹ | 1990 ± 520 µM | 0.0015 ± 0.0002 s⁻¹ | 0.00373 ± 0.00055 s⁻¹ | 0.00681 ± 0.00053 s⁻¹ | 0.000531 ± 6.8e-05 s⁻¹
C67U C68U | 0.000115 ± 7.3e-06 s⁻¹ | – | 293 ± 85 µM | 7.85e-05 ± 9.1e-06 s⁻¹ | 0.000124 ± 1.3e-05 s⁻¹ | 0.000107 ± 7.4e-06 s⁻¹ | 3.97e-05 ± 8.6e-06 s⁻¹
C11A C61U C67G | < 1e-05 s⁻¹ | – | – | – | – | – | –
A36C A52G | < 1e-05 s⁻¹ | – | – | – | – | – | –
C16A U46C | 6.68e-05 ± 1.4e-05 s⁻¹ | < 1e-05 s⁻¹ | – | – | 5.11e-05 ± 1.4e-05 s⁻¹ | 5.46e-05 ± 1e-05 s⁻¹ | –
U54G G66U | 0.00193 ± 0.00025 s⁻¹ | 5.67e-05 ± 5.9e-06 s⁻¹ | 1570 ± 340 µM | 0.000509 ± 4.8e-05 s⁻¹ | 0.000956 ± 0.00014 s⁻¹ | 0.00181 ± 0.00013 s⁻¹ | 0.000183 ± 2.7e-05 s⁻¹
